From patent US20240392000A1 (BIOGRAPH 55, published 2024)
Residue numbers refer to the chain shown, from its start.

B1: BS1M-4 (BS1 anti-CD38 arm CDR-H2 variant RVIPHLGTAN) (bispecific antibody, human IgG1, kappa)
heavy: not shown
VH: QVQLVQSGAEVKKPGSSVKVSCKASGGTFSSYAFSWVRQAPGQGLEWMGRVIPHLGTANSAQKFQGRVTITADKSTSTAYMELSSLRSEDTAVYYCARDDIAALGPFDYWGQGTLVTVSS
light: not shown
notes: BS1 format
B2: BS1M-7 (BS1 anti-CD38 arm CDR-H2 variant RVIPQLGTAN) (bispecific antibody, human IgG1, kappa)
heavy: not shown
VH: B1 VH with H54Q
light: not shown
notes: BS1 format

Target: CD38 antigen (in solution, Octet analyte) (human, UniProt P28907 43-300, limits assumed)
Assay: BLI (Octet Red), antibody captured on AHC sensor, antigen in solution, 1:1 model

Binder | Kd [nM]
B1 | 94.4
B2 | 60.5
